Experimental data from the Immune Epitope Database (IEDB).

Assays:
Experiment in all cases: IEDB peptide-MHC binding, purified MHC/direct/fluorescence; filed as Kd, often an IC50 or EC50 that approximates it; ≥ and ≤ were set here for values at or beyond the usual limits of such assays
HLA-A*03:01 = molecular target: HLA-A*03:01
HLA-B*58:01 = molecular target: HLA-B*58:01
HLA-B*15:17 = molecular target: HLA-B*15:17
HLA-B*27:05 = molecular target: HLA-B*27:05
HLA-B*15:01 = molecular target: HLA-B*15:01
HLA-B*44:02 = molecular target: HLA-B*44:02
HLA-B*35:01 = molecular target: HLA-B*35:01
HLA-A*26:01 = molecular target: HLA-A*26:01
HLA-C*15:02 = molecular target: HLA-C*15:02
HLA-A*11:01 = molecular target: HLA-A*11:01
HLA-A*69:01 = molecular target: HLA-A*69:01
HLA-A*31:01 = molecular target: HLA-A*31:01
HLA-A*02:01 = molecular target: HLA-A*02:01
HLA-A*01:01 = settings: source organism: Giardia lamblia ATCC 50803
HLA-B*08:01 = molecular target: HLA-B*08:01
HLA-B*40:01 = molecular target: HLA-B*40:01
HLA-B*07:02 = molecular target: HLA-B*07:02
HLA-B*57:01 = settings: source organism: Campylobacter jejuni RM1221
[1] = source organism: Giardia lamblia ATCC 50803
[2] = source organism: Campylobacter jejuni RM1221
[3] = source organism: Campylobacter jejuni

ITASKDLCF showed a Kd (HLA-A*03:01; [1]) of no less than 20 µM, a Kd (HLA-B*58:01; [1]) of 0.433 µM and a Kd (HLA-B*15:17; [1]) of 0.0028 µM. The Kd (HLA-B*27:05; [1]) was no less than 20 µM, the Kd (HLA-B*15:01; [1]) was 0.301 µM and the Kd (HLA-B*44:02; [1]) was no less than 20 µM. It also gave a Kd (HLA-B*35:01; [1]) of 0.365 µM, a Kd (HLA-A*26:01; [1]) of no less than 20 µM and a Kd (HLA-C*15:02; [1]) of 3.85 µM. It also gave a Kd (HLA-A*11:01; [1]) of no less than 20 µM, a Kd (HLA-A*69:01; [1]) of no less than 20 µM and a Kd (HLA-A*31:01; [1]) of no less than 20 µM. For the same sequence, the Kd (HLA-A*02:01; [1]) was no less than 20 µM, the Kd (HLA-A*01:01) was 8.69 µM and the Kd (HLA-B*08:01; [1]) was no less than 20 µM. The Kd (HLA-B*40:01; [1]) was no less than 20 µM and the Kd (HLA-B*07:02; [1]) was no less than 20 µM.
Sequence KSNEKNMDF has a Kd (HLA-A*03:01; [2]) of no less than 20 µM, a Kd (HLA-B*58:01; [3]) of 0.063 µM and a Kd (HLA-B*15:17; [2]) of 0.0073 µM. For the same sequence, the Kd (HLA-B*27:05; [2]) was no less than 20 µM, the Kd (HLA-B*15:01; [3]) was 0.215 µM and the Kd (HLA-B*44:02; [2]) was no less than 20 µM. It also gave a Kd (HLA-B*35:01; [3]) of 3.16 µM, a Kd (HLA-A*26:01; [2]) of no less than 20 µM and a Kd (HLA-C*15:02; source organism: Campylobacter jejuni subsp. jejuni NCTC 11168 = ATCC 700819) of 0.15 µM. For the same sequence, the Kd (HLA-A*11:01; [2]) was no less than 20 µM, the Kd (HLA-A*69:01; [2]) was no less than 20 µM and the Kd (HLA-A*31:01; [2]) was no less than 20 µM. For the same sequence, the Kd (HLA-A*02:01; [2]) was no less than 20 µM, the Kd (HLA-B*08:01; [2]) was no less than 20 µM and the Kd (HLA-B*40:01; [2]) was no less than 20 µM. For the same sequence, the Kd (HLA-B*07:02; [2]) was no less than 20 µM and the Kd (HLA-B*57:01) was 0.467 µM.
